The target of test [1] is T1, Fc gamma receptor CD16a F variant (human, UniProt P08637).
T1 construct: recombinant protein coated on the ELISA plate; also called recombinant huCD16a
Nature of the test: ELISA, plate coated with recombinant huCD16a (F variant), detection with peroxidase anti-human IgG F(ab')2, OD 450 nm - 630 nm. (ELISA stands for enzyme-linked immunosorbent assay.)

Test [2] addresses T2, human Dectin-1 (isoform not given) (human, UniProt Q9BXN2 1-247).
T2 chain: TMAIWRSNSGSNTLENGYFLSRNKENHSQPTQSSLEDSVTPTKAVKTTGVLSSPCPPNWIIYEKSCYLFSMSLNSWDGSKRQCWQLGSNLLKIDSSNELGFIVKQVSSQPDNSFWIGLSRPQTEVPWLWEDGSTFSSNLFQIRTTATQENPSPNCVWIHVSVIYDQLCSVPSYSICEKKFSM
Nature of the test: cell-based or functional assay.

The target of test [3] is T3, cynomolgus monkey Dectin-1 (cynomolgus monkey, UniProt A0A2K5UXY6 35-281).
T3 construct: whole, on cells; also called cynomolgus Dectin-1; cyno Dectin-1
T3 sequence: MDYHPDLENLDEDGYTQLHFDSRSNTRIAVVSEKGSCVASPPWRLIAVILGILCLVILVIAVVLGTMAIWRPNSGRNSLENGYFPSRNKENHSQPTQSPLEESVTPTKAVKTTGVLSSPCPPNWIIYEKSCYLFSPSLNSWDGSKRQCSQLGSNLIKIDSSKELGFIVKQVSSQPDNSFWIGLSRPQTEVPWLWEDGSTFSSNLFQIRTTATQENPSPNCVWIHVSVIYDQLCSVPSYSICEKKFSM
Nature of the test: flow cytometry, cynomolgus monkey monocytes. (In general: A flow cytometer gives signals particle by particle.)

The target of test [4] is T2, human Dectin-1 (isoform not given). As to the kind of experiment: flow cytometry on human monocytes.
Test [5] concerns the target T4, human Dectin-1 isoform A (human, UniProt Q9BXN2 1-247).
T4 construct: On HEK-Blue hDectin-1a cells (Invivogen); also called hDectin-1a
T4 sequence: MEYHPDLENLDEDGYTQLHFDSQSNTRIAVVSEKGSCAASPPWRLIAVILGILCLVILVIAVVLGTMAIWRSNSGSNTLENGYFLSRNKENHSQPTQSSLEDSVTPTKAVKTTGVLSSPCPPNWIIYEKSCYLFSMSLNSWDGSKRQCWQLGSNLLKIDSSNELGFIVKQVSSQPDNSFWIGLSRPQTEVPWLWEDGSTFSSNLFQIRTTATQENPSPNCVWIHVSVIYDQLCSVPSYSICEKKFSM
As to the kind of experiment: flow cytometry on HEK-Blue hDectin-1a cells.

The target of test [6] is T5, human Dectin-1 isoform B (human, UniProt Q9BXN2 1-247).
T5 construct: On HEK-Blue hDectin-1b cells (Invivogen); also called hDectin-1b
T5 sequence: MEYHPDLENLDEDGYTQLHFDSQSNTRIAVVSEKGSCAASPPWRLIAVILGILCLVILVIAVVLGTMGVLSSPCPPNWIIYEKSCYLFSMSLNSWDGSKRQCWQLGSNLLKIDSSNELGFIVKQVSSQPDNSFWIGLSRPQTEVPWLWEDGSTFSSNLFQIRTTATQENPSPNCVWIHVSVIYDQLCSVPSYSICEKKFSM
Nature of the test: flow cytometry on HEK-Blue hDectin-1b cells.

Test [7] has as its target T4, human Dectin-1 isoform A. As to the kind of experiment: flow cytometry on HEK293F hDectin-1a FL cells.
The target of test [8] is T2, human Dectin-1 (isoform not given). Nature of the test: flow cytometry on human monocytes (summary table).
Test [9] deals with T4, human Dectin-1 isoform A. Nature of the test: flow cytometry on HEK-Blue hDectin-1a cells (summary table).
Test [10] has as its target T5, human Dectin-1 isoform B. As to the kind of experiment: flow cytometry on HEK-Blue hDectin-1b cells (summary table).
Test [11] has as its target T4, human Dectin-1 isoform A. As to the kind of experiment: flow cytometry on HEK293F hDectin-1a FL cells (summary table).
The target in test [12] is T2, human Dectin-1 (isoform not given). As to the kind of experiment: flow cytometry on Dectin-1-expressing HEK cells.
The target in test [13] is T6, Trop-2 (human, UniProt P09758 27-323).
T6 construct: whole, on cells
T6 sequence (looked up): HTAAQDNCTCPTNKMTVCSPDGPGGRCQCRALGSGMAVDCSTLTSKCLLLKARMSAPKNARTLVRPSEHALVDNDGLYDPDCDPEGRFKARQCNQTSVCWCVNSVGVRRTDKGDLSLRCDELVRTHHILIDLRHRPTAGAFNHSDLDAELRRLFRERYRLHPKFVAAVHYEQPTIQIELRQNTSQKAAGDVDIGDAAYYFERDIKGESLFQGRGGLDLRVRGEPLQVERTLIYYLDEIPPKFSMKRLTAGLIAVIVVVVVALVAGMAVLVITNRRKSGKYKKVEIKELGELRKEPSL
As to the kind of experiment: flow cytometry on A431 cells (Trop-2-expressing).

Test [14] has as its target T2, human Dectin-1 (isoform not given). As to the kind of experiment: flow cytometry on Dectin-1-expressing HEK cells, 4PL fit [upper panel].

Experimental findings from patent publication US20250129168A1 (DREN BIO, published 2025) are described below.

T1 sequence (P08637 17-208 limits assumed, change not shown): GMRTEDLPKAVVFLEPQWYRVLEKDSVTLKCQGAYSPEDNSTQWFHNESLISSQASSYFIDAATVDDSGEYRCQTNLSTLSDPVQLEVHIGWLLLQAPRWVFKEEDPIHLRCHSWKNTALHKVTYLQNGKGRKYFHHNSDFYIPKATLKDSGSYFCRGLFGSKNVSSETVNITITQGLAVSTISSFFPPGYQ

B1: 2M24 CD20 NF (bispecific antibody)
chain 1: not shown
chain 2: not shown
chain 3: not shown
chain 4: QIVLSQSPAILSASPGEKVTMTCRASSSVSYIHWFQQKPGSSPKPWIYATSNLASGVPVRFSGSGSGTSYSLTISRVEAEDAATYYCQQWTSNPPTFGGGTKLEIKRTVAAPSVFIFPPSDEQLKSGTASVVCLLNNFYPREAKVQWKVDNALQSGNSQESVTEQDSKDSTYSLSSTLTLSKADYEKHKVYACEVTHQGLSSPVTKSFNRGEC
modifications: non-fucosylated Fc glycan
As to B1, the concentration for a half-maximal effect (EC50 (read off the curve)) (as a rule, the concentration that produces a half-maximal response) in test [1] is about 0.1 µg/mL.

B2: commercial anti-Dectin-1 antibody 15E2 (antibody, V domains shown)
VH: QWQLQQSGAELARPGASWKMSCKASGYTFTTYTMHWWKQRPGQGLEWIGYINPSSGYTNYNQKFKDKATLTADKSSSTASMQLSSLTSEDSAWYYCARERAVLVPYAMDYWGQGTSVTVSS
VL: QIVLTQSPAVMSASPGEKWTITCTASSSLSYMHWFQQKPGTSPKLWLYSTSILASGVPTRFSGSGSGTSYSLTISRMEAEDAATYYCQQRSSSPFTFGSGTKLEIK
In the case of B2, the “IFNg secretion in PBMC, immobilized antibody (fold change to isotype)” value in test [2] was 1.6 fold change to isotype. For the same molecule, in test [2], the “IL6 secretion in PBMC, immobilized antibody (fold change to isotype)” value was 2.6 fold change to isotype. In addition, the “TNFa secretion in PBMC, immobilized antibody (fold change to isotype)” value in [2] is 3 fold change to isotype. Also, the EC50 (usually the concentration that produces a half-maximal response) in [3] was determined as 14 nM; in test [4], 0.6 nM; in test [5], 1.2 nM; in test [6] it was 9.3 nM; in test [7], 1.4 nM; in test [8], 0.6 nM. Moreover, the EC50 worked out at 1.2 nM in test [9], 9.3 nM in test [10] and 1.4 nM in test [11].

B3: 2M24/Trop-2 hIgG1 bispecific antibody (bispecific antibody, V domains shown)
VH 1: QVQLVQSGAEVKKPGASVKVSCKSSGYTFTDYYIHWVRQAPGQGLEWMGWINPNSGDTNYAQKFQGRITMTRDTSISTAYLELSRLRSDDTAVFYCARNSGSYSFGYWGQGTLVTVSS
VL 1: DIQMTQSPSSVSASVGDRVTITCRASQGISSWLAWYQQKPGKAPKLLIFGASSLQSGVPSRFSGSGSGTDFTLTVSSLQPEDFATYYCQQAYSFPFTFGPGTKVDIE
VH 2: QVQLQQSGSELKKPGASVKVSCKASGYTFTNYGMNWVKQAPGQGLKWMGWINTYTGEPTYTDDFKGRFAFSLDTSVSTAYLQISSLKADDTAVYFCARGGFGSSYWYFDVWGQGSLVTVSS
VL 2: DIQLTQSPSSLSASVGDRVSITCKASQDVSIAVAWYQQKPGKAPKLLIYSASYRYTGVPDRFSGSGSGTDFTLTISSLQPEDFAVYYCQQHYITPLTFGAGTKVEIK
notes: Human IgG1; also called anti-Dectin-1 (2M24)/anti-Trop-2 bispecific antibody
On to B3, for which, in test [12], the “EC50 (read off the curve)” value is about 3 nM.

B4: parental anti-Trop2 monospecific antibody (antibody, V domains shown)
VH: B3 VH 2
VL: B3 VL 2
B4: the “EC50 (read off the curve)” value in test [13] was about 8 nM.

B5: 2M24/Nectin-4 hIgG1 bispecific antibody (bispecific antibody, V domains shown)
VH 1: B3 VH 1
VL 1: B3 VL 1
VH 2: EVQLVESGGGLVQPGGSLRLSCAASGFTFSSYNMNWVRQAPGKGLEWVSYISSSSSTIYYADSVKGRFTISRDNAKNSLSLQMNSLRDEDTAVYYCARAYYYGMDVWGQGTTVTVSS
VL 2: DIQMTQSPSSVSASVGDRVTITCRASQGISGWLAWYQQKPGKAPKFLIYAASTLQSGVPSRFSGSGSGTDFTLTISSLQPEDFATYYCQQANSFPPTFGGGTKVEIK
notes: Human IgG1
The molecule B5 displayed an EC50 in [14] of 2.65 nM.
